Bridge positions count the residues as written; N and C are the ends.
Assays:
[1] = biological target: T1, human glucose-regulated protein GRP78 (human, UniProt P11021 19-654); assay: SPR
[2] = biological target: T1, human glucose-regulated protein GRP78; assay: SPR; remark: listed apart in the source
[3] = biological target: T1, human glucose-regulated protein GRP78; assay: SPR; two-state model, kd1
[4] = biological target: T1, human glucose-regulated protein GRP78; assay: SPR; two-state reaction model

T1 sequence (P11021 19-654): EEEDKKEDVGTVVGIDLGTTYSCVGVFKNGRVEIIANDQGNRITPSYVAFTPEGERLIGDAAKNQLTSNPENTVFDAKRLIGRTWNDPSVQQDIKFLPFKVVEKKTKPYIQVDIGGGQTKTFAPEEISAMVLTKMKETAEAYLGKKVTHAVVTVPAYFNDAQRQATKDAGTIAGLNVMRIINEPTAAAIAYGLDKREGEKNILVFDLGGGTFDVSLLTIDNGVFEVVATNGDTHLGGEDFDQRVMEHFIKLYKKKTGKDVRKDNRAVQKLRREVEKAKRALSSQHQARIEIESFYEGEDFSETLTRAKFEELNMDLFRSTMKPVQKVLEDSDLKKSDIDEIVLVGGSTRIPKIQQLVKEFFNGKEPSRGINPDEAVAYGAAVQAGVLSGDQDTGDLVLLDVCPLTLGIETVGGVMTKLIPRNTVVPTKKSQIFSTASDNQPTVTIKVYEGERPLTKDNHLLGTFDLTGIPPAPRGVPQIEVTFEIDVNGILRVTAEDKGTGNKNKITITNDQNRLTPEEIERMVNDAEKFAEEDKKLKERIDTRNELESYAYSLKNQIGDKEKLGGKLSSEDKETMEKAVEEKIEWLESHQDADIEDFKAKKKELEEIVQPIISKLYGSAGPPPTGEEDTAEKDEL

B1: LCP W, loop-derived cyclic peptide based on spike residues 480-488 of the Wuhan strain (peptide)
peptide: H-CNGVEGFNC-NH2
modifications: disulfide 1-9
SMILES: CC(C)[C@@H]1NC(=O)CNC(=O)[C@H](CC(N)=O)NC(=O)[C@@H](N)CSSC[C@@H](C(N)=O)NC(=O)[C@H](CC(N)=O)NC(=O)[C@H](Cc2ccccc2)NC(=O)CNC(=O)[C@H](CCC(=O)O)NC1=O
Kd [1]: 0.259 mM | koff [2]: 0.43 s⁻¹

B2: Pep42, 13-mer cyclopeptide (peptide)
peptide: H-CTVALPGGYVRVC-NH2
modifications: disulfide 1-13
SMILES: CC(C)C[C@@H]1NC(=O)[C@H](C)NC(=O)[C@H](C(C)C)NC(=O)[C@H]([C@@H](C)O)NC(=O)[C@@H](N)CSSC[C@@H](C(N)=O)NC(=O)[C@H](C(C)C)NC(=O)[C@H](CCCNC(=N)N)NC(=O)[C@H](C(C)C)NC(=O)[C@H](Cc2ccc(O)cc2)NC(=O)CNC(=O)CNC(=O)[C@@H]2CCCN2C1=O
koff [3]: 0.678 s⁻¹ | Kd [4]: 3.43 mM

Reference: PMC11497264 (2024)
